Test results taken from patent US20260015399A1 (Boehringer Ingelheim, published 2026).
*1 amine or outer side, *2 acyl side, *3 side chain or, on linkers, in order; H or OH if unused. Side-chain parts run from the residue outwards. The star is where a group is joined. C18 diacid = O=C(O)CCCCCCCCCCCCCCCCC(=O)*; γGlu = O=C(O)[C@H](CCC(=O)[*:2])N[*:1]; Isovaleryl = CC(C)CC(=O)*; Ahx = NCCCCCC(=O)O

Biological target: T1, human NPY2 receptor (human, UniProt P49146 1-381)
T1 construct: whole, on cells; also called hNPY2-R; hNPY2R
T1 sequence (looked up): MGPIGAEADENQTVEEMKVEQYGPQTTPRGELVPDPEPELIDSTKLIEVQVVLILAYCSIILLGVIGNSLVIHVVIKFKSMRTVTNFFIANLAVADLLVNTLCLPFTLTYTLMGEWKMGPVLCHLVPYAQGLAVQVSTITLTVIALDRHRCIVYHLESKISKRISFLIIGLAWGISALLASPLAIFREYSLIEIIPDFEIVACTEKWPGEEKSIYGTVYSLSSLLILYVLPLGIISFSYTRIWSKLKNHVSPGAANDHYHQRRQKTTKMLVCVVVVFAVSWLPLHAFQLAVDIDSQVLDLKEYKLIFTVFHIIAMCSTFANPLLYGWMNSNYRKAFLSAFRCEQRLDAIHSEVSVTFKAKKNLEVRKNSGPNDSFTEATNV
Experiment: RLB: displacement of 125I-PYY(1-36) from hNPY2R membranes

Binder	Ki
Isovaleryl-APEK([Ahx-γGlu-C18 diacid])PEEDAEPEETQRYYVSLRHYYNWLTRQRY-NH2 (SMILES CC(C)CC(=O)N[C@@H](C)C(=O)N1CCC[C@H]1C(=O)N[C@@H](CCC(=O)O)C(=O)N[C@@H](CCCCNC(=O)CCCCCNC(=O)CC[C@H](NC(=O)CCCCCCCCCCCCCCCCC(=O)O)C(=O)O)C(=O)N1CCC[C@H]1C(=O)N[C@@H](CCC(=O)O)C(=O)N[C@@H](CCC(=O)O)C(=O)N[C@@H](CC(=O)O)C(=O)N[C@@H](C)C(=O)N[C@@H](CCC(=O)O)C(=O)N1CCC[C@H]1C(=O)N[C@@H](CCC(=O)O)C(=O)N[C@@H](CCC(=O)O)C(=O)N[C@H](C(=O)N[C@@H](CCC(N)=O)C(=O)N[C@@H](CCCNC(=N)N)C(=O)N[C@@H](Cc1ccc(O)cc1)C(=O)N[C@@H](Cc1ccc(O)cc1)C(=O)N[C@H](C(=O)N[C@@H](CO)C(=O)N[C@@H](CC(C)C)C(=O)N[C@@H](CCCNC(=N)N)C(=O)N[C@@H](Cc1c[nH]cn1)C(=O)N[C@@H](Cc1ccc(O)cc1)C(=O)N[C@@H](Cc1ccc(O)cc1)C(=O)N[C@@H](CC(N)=O)C(=O)N[C@@H](Cc1c[nH]c2ccccc12)C(=O)N[C@@H](CC(C)C)C(=O)N[C@H](C(=O)N[C@@H](CCCNC(=N)N)C(=O)N[C@@H](CCC(N)=O)C(=O)N[C@@H](CCCNC(=N)N)C(=O)N[C@@H](Cc1ccc(O)cc1)C(N)=O)[C@@H](C)O)C(C)C)[C@@H](C)O) [Compound 107]	5.13 nM
Isovaleryl-APEK([Ahx-γGlu-C18 diacid])PEADASEEELQRYYVSLRHYYNWLTRQRY-NH2 (SMILES CC(C)CC(=O)N[C@@H](C)C(=O)N1CCC[C@H]1C(=O)N[C@@H](CCC(=O)O)C(=O)N[C@@H](CCCCNC(=O)CCCCCNC(=O)CC[C@H](NC(=O)CCCCCCCCCCCCCCCCC(=O)O)C(=O)O)C(=O)N1CCC[C@H]1C(=O)N[C@@H](CCC(=O)O)C(=O)N[C@@H](C)C(=O)N[C@@H](CC(=O)O)C(=O)N[C@@H](C)C(=O)N[C@@H](CO)C(=O)N[C@@H](CCC(=O)O)C(=O)N[C@@H](CCC(=O)O)C(=O)N[C@@H](CCC(=O)O)C(=O)N[C@@H](CC(C)C)C(=O)N[C@@H](CCC(N)=O)C(=O)N[C@@H](CCCNC(=N)N)C(=O)N[C@@H](Cc1ccc(O)cc1)C(=O)N[C@@H](Cc1ccc(O)cc1)C(=O)N[C@H](C(=O)N[C@@H](CO)C(=O)N[C@@H](CC(C)C)C(=O)N[C@@H](CCCNC(=N)N)C(=O)N[C@@H](Cc1c[nH]cn1)C(=O)N[C@@H](Cc1ccc(O)cc1)C(=O)N[C@@H](Cc1ccc(O)cc1)C(=O)N[C@@H](CC(N)=O)C(=O)N[C@@H](Cc1c[nH]c2ccccc12)C(=O)N[C@@H](CC(C)C)C(=O)N[C@H](C(=O)N[C@@H](CCCNC(=N)N)C(=O)N[C@@H](CCC(N)=O)C(=O)N[C@@H](CCCNC(=N)N)C(=O)N[C@@H](Cc1ccc(O)cc1)C(N)=O)[C@@H](C)O)C(C)C) [Compound 108]	2.77 nM
Isovaleryl-APEK([Ahx-γGlu-C18 diacid])PEEDLTPEELQRYYVSLRHYYNWLTRQRY-NH2 (SMILES CC(C)CC(=O)N[C@@H](C)C(=O)N1CCC[C@H]1C(=O)N[C@@H](CCC(=O)O)C(=O)N[C@@H](CCCCNC(=O)CCCCCNC(=O)CC[C@H](NC(=O)CCCCCCCCCCCCCCCCC(=O)O)C(=O)O)C(=O)N1CCC[C@H]1C(=O)N[C@@H](CCC(=O)O)C(=O)N[C@@H](CCC(=O)O)C(=O)N[C@@H](CC(=O)O)C(=O)N[C@@H](CC(C)C)C(=O)N[C@H](C(=O)N1CCC[C@H]1C(=O)N[C@@H](CCC(=O)O)C(=O)N[C@@H](CCC(=O)O)C(=O)N[C@@H](CC(C)C)C(=O)N[C@@H](CCC(N)=O)C(=O)N[C@@H](CCCNC(=N)N)C(=O)N[C@@H](Cc1ccc(O)cc1)C(=O)N[C@@H](Cc1ccc(O)cc1)C(=O)N[C@H](C(=O)N[C@@H](CO)C(=O)N[C@@H](CC(C)C)C(=O)N[C@@H](CCCNC(=N)N)C(=O)N[C@@H](Cc1c[nH]cn1)C(=O)N[C@@H](Cc1ccc(O)cc1)C(=O)N[C@@H](Cc1ccc(O)cc1)C(=O)N[C@@H](CC(N)=O)C(=O)N[C@@H](Cc1c[nH]c2ccccc12)C(=O)N[C@@H](CC(C)C)C(=O)N[C@H](C(=O)N[C@@H](CCCNC(=N)N)C(=O)N[C@@H](CCC(N)=O)C(=O)N[C@@H](CCCNC(=N)N)C(=O)N[C@@H](Cc1ccc(O)cc1)C(N)=O)[C@@H](C)O)C(C)C)[C@@H](C)O) [Compound 109]	14 nM
Isovaleryl-APEK([Ahx-γGlu-C18 diacid])PEEDATPEELQRYYVELRHYYNWLTRQRY-NH2 (SMILES CC(C)CC(=O)N[C@@H](C)C(=O)N1CCC[C@H]1C(=O)N[C@@H](CCC(=O)O)C(=O)N[C@@H](CCCCNC(=O)CCCCCNC(=O)CC[C@H](NC(=O)CCCCCCCCCCCCCCCCC(=O)O)C(=O)O)C(=O)N1CCC[C@H]1C(=O)N[C@@H](CCC(=O)O)C(=O)N[C@@H](CCC(=O)O)C(=O)N[C@@H](CC(=O)O)C(=O)N[C@@H](C)C(=O)N[C@H](C(=O)N1CCC[C@H]1C(=O)N[C@@H](CCC(=O)O)C(=O)N[C@@H](CCC(=O)O)C(=O)N[C@@H](CC(C)C)C(=O)N[C@@H](CCC(N)=O)C(=O)N[C@@H](CCCNC(=N)N)C(=O)N[C@@H](Cc1ccc(O)cc1)C(=O)N[C@@H](Cc1ccc(O)cc1)C(=O)N[C@H](C(=O)N[C@@H](CCC(=O)O)C(=O)N[C@@H](CC(C)C)C(=O)N[C@@H](CCCNC(=N)N)C(=O)N[C@@H](Cc1c[nH]cn1)C(=O)N[C@@H](Cc1ccc(O)cc1)C(=O)N[C@@H](Cc1ccc(O)cc1)C(=O)N[C@@H](CC(N)=O)C(=O)N[C@@H](Cc1c[nH]c2ccccc12)C(=O)N[C@@H](CC(C)C)C(=O)N[C@H](C(=O)N[C@@H](CCCNC(=N)N)C(=O)N[C@@H](CCC(N)=O)C(=O)N[C@@H](CCCNC(=N)N)C(=O)N[C@@H](Cc1ccc(O)cc1)C(N)=O)[C@@H](C)O)C(C)C)[C@@H](C)O) [Compound 110]	6.42 nM
Isovaleryl-APAK([Ahx-γGlu-C18 diacid])PEAAAEPEEIQRYYVSLRHYYNWLTRQRY-NH2 (SMILES CC[C@H](C)[C@H](NC(=O)[C@H](CCC(=O)O)NC(=O)[C@H](CCC(=O)O)NC(=O)[C@@H]1CCCN1C(=O)[C@H](CCC(=O)O)NC(=O)[C@H](C)NC(=O)[C@H](C)NC(=O)[C@H](C)NC(=O)[C@H](CCC(=O)O)NC(=O)[C@@H]1CCCN1C(=O)[C@H](CCCCNC(=O)CCCCCNC(=O)CC[C@H](NC(=O)CCCCCCCCCCCCCCCCC(=O)O)C(=O)O)NC(=O)[C@H](C)NC(=O)[C@@H]1CCCN1C(=O)[C@H](C)NC(=O)CC(C)C)C(=O)N[C@@H](CCC(N)=O)C(=O)N[C@@H](CCCNC(=N)N)C(=O)N[C@@H](Cc1ccc(O)cc1)C(=O)N[C@@H](Cc1ccc(O)cc1)C(=O)N[C@H](C(=O)N[C@@H](CO)C(=O)N[C@@H](CC(C)C)C(=O)N[C@@H](CCCNC(=N)N)C(=O)N[C@@H](Cc1c[nH]cn1)C(=O)N[C@@H](Cc1ccc(O)cc1)C(=O)N[C@@H](Cc1ccc(O)cc1)C(=O)N[C@@H](CC(N)=O)C(=O)N[C@@H](Cc1c[nH]c2ccccc12)C(=O)N[C@@H](CC(C)C)C(=O)N[C@H](C(=O)N[C@@H](CCCNC(=N)N)C(=O)N[C@@H](CCC(N)=O)C(=O)N[C@@H](CCCNC(=N)N)C(=O)N[C@@H](Cc1ccc(O)cc1)C(N)=O)[C@@H](C)O)C(C)C) [Compound 111]	2.14 nM
